Results as given in US20170182124A1, “FGF21 Derivatives and Uses Thereof” (Novo Nordisk A/S, priority 2014, published 2017).
Like-named read-outs stand apart in the source and are kept apart here.

Molecular target: FGF receptor/BKL complex
Assay: FGF receptor potency in an Erk phosphorylation assay in HEK293 overexpressing human BKL
Type: cell-based
Conditions: for EC50: HEK293/BKL cells, pERK after 12 minutes
Description: In order to test the binding of the FGF21 derivatives to albumin, the assay was performed in the absence of serum albumin as well as in the presence of human serum albumin (HSA) (0.1% final assay concentration). An increase in EC50 value (decrease in potency) in the presence of serum albumin for FGF21 derivatives would indicate binding to serum albumin and represents a method to predict a protracted pharmacokinetic profile of the test substance in animal models. MetFGF21 (SEQ ID NO:2) is included for reference.
HEK293 cells endogenously express several FGF receptors, including FGFR1c, FGFR3c and FGFR4. These cells are unresponsive to FGF21 until transfected with the co-receptor beta-klotho (BKL). Activation of the FGF receptor/BKL complex leads to activation of the MAPK/ERK signalling pathway and phosphorylation of ERK. The level of phosphorylated ERK (pERK) at a given time point increases with increasing concentrations of FGF21. As described below the level of pERK is measured after 12 minutes of stimulation with a range of FGF21 analogue concentrations.
The HEK293/beta-klotho cells are seeded with 30.000 cells/well in 96 well plates in DMEM (BioWhittaker #BE12-604F/U1), supplemented with 10% FCS (Gibco #16140-071), 1% penicillin/streptomycin (Gibco #15140), 100 µg/ml Hygromycin B, (Calbiochem, # 400052). Two days later and 2 hours before addition of compound the cell medium is exchanged with 100 ∞l basal medium (DMEM (BioWhittaker #BE12-604F/U1)). The FGF21 analogues are diluted in assay medium (DMEM (BioWhittaker #BE12-604F/U1) supplemented with 0.02% Tween20), warmed to 37° C., added to the cells (100 μl) and incubated at 37° C. for 12 minutes. The FGF21 derivatives were also tested in the presence of 0.1% HSA (Sigma—A1887). All medium is quickly removed and 50 μl lysis buffer is added pr. well. The plate is shaken for 5 minutes and the lysate is ready for measurement of pERK. pERK is measured in 384 well plates with the AlphaScreen SureFire kit (PerkinElmer #TGRES10K). This kit is based on ERK and pERK specific antibodies coupled to donor and acceptor beads. The presence of pERK will bring acceptor and donor beads in close proximity and a signal is generated that is read on EnVision. The data are analysed using GraphPad Prism and the potency of the FGF21 proteins is described as absolute EC50 value.

[1] = presence of 0.1% HSA, read-out: EC50 (0.1% HSA)

Chain of FGF receptor/BKL complex (Q86Z14 whole entry, one chain of several): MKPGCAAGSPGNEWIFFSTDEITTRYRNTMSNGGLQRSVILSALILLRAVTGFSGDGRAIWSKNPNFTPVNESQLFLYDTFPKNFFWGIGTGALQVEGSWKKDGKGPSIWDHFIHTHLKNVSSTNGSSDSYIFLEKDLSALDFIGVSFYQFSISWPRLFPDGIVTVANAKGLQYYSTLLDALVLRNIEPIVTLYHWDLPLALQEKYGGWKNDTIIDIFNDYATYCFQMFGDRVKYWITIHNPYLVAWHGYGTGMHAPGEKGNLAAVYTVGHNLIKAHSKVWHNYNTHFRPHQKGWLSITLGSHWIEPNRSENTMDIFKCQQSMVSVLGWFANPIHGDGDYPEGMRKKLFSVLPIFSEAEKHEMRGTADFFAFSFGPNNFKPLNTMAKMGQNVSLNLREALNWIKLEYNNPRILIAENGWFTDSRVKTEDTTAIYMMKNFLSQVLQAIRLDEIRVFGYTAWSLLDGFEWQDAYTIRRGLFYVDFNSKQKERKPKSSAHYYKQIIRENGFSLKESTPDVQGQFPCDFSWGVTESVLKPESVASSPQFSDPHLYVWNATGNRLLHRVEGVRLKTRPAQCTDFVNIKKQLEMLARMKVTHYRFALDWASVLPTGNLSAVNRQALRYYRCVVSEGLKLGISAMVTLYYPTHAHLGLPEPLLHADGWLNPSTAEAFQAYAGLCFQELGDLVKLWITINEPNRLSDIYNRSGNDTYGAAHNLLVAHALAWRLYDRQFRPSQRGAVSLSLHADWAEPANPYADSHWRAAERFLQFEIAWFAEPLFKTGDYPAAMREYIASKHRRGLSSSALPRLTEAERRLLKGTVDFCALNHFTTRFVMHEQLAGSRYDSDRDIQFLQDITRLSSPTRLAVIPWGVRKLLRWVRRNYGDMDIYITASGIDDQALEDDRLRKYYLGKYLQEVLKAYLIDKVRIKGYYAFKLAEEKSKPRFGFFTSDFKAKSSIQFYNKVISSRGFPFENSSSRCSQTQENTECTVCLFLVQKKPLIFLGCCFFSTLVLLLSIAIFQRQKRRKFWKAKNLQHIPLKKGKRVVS

Molecule	EC50 (absence of HSA, read-out: EC50)	EC50 [1]	potency in HEK293/BKL cells compared with MetFGF21 or corresponding analogue (in words) (absence of HSA)
S{Beta-168}-[2-[2-[[2-[2-[2-[[2-[2-[2-[[(4S)-4-carboxy-4-(13-carboxytridecanoyl-amino)butanoyl]amino]ethoxy]ethoxy]acetyl]amino]ethoxy]ethoxy]acetyl]amino]-ethylamino]-2-oxoethyl]-Ala[Gln121,Cys168]FGF21 [Compound 34]	667 nM	4260 nM	
Ala[Gln121, Cys168]FGF21 (protein, N-terminal Ala) AHPIPDSSPLLQFGGQVRQRYLYTDDAQQTEAHLEIREDGTVGGAADQSPESLLQLKALKPGVIQILGVKTSRFLCQRPDGALYGSLHFDPEACSFRELLLEDGYNVYQSEAHGLPLHLPGQKSPHRDPAPRGPARFLPLPGLPPALPEPPGILAPQPPDVGSSDPLSCVGPSQGRSPSYAS	492 nM		decreased potency
Ala[Gln121, Leu168, Cys174]FGF21 (protein, N-terminal Ala, FGF21 analogue) AHPIPDSSPLLQFGGQVRQRYLYTDDAQQTEAHLEIREDGTVGGAADQSPESLLQLKALKPGVIQILGVKTSRFLCQRPDGALYGSLHFDPEACSFRELLLEDGYNVYQSEAHGLPLHLPGQKSPHRDPAPRGPARFLPLPGLPPALPEPPGILAPQPPDVGSSDPLSLVGPSQGCSPSYAS	5 nM		
Ala[Gln121, Leu168, Cys171]FGF21 (protein, N-terminal Ala, FGF21 analogue) AHPIPDSSPLLQFGGQVRQRYLYTDDAQQTEAHLEIREDGTVGGAADQSPESLLQLKALKPGVIQILGVKTSRFLCQRPDGALYGSLHFDPEACSFRELLLEDGYNVYQSEAHGLPLHLPGQKSPHRDPAPRGPARFLPLPGLPPALPEPPGILAPQPPDVGSSDPLSLVGPCQGRSPSYAS	8 nM		
Ala[Gln121, Leu168, Cys170]FGF21 (protein, N-terminal Ala) AHPIPDSSPLLQFGGQVRQRYLYTDDAQQTEAHLEIREDGTVGGAADQSPESLLQLKALKPGVIQILGVKTSRFLCQRPDGALYGSLHFDPEACSFRELLLEDGYNVYQSEAHGLPLHLPGQKSPHRDPAPRGPARFLPLPGLPPALPEPPGILAPQPPDVGSSDPLSLVCPSQGRSPSYAS	7 nM		
Ala[Gln121, Cys167, Leu168,]FGF21 (protein, N-terminal Ala) AHPIPDSSPLLQFGGQVRQRYLYTDDAQQTEAHLEIREDGTVGGAADQSPESLLQLKALKPGVIQILGVKTSRFLCQRPDGALYGSLHFDPEACSFRELLLEDGYNVYQSEAHGLPLHLPGQKSPHRDPAPRGPARFLPLPGLPPALPEPPGILAPQPPDVGSSDPLCLVGPSQGRSPSYAS	4 nM		
Ala[Gln121, Leu168, Cys172]FGF21 (protein, N-terminal Ala, FGF21 analogue) AHPIPDSSPLLQFGGQVRQRYLYTDDAQQTEAHLEIREDGTVGGAADQSPESLLQLKALKPGVIQILGVKTSRFLCQRPDGALYGSLHFDPEACSFRELLLEDGYNVYQSEAHGLPLHLPGQKSPHRDPAPRGPARFLPLPGLPPALPEPPGILAPQPPDVGSSDPLSLVGPSCGRSPSYAS	5 nM		
Ala[Gln121, Leu168, Cys169]FGF21 (protein, N-terminal Ala) AHPIPDSSPLLQFGGQVRQRYLYTDDAQQTEAHLEIREDGTVGGAADQSPESLLQLKALKPGVIQILGVKTSRFLCQRPDGALYGSLHFDPEACSFRELLLEDGYNVYQSEAHGLPLHLPGQKSPHRDPAPRGPARFLPLPGLPPALPEPPGILAPQPPDVGSSDPLSLCGPSQGRSPSYAS	22 nM		
Ala[Gln121, Leu168, Cys173]FGF21 (protein, N-terminal Ala, FGF21 analogue) AHPIPDSSPLLQFGGQVRQRYLYTDDAQQTEAHLEIREDGTVGGAADQSPESLLQLKALKPGVIQILGVKTSRFLCQRPDGALYGSLHFDPEACSFRELLLEDGYNVYQSEAHGLPLHLPGQKSPHRDPAPRGPARFLPLPGLPPALPEPPGILAPQPPDVGSSDPLSLVGPSQCRSPSYAS	4 nM		
Ala[Gln121, Leu168, Cys177]FGF21 (protein, N-terminal Ala) AHPIPDSSPLLQFGGQVRQRYLYTDDAQQTEAHLEIREDGTVGGAADQSPESLLQLKALKPGVIQILGVKTSRFLCQRPDGALYGSLHFDPEACSFRELLLEDGYNVYQSEAHGLPLHLPGQKSPHRDPAPRGPARFLPLPGLPPALPEPPGILAPQPPDVGSSDPLSLVGPSQGRSCSYAS	416 nM		
Ala[Gln121, Leu168, Cys175]FGF21 (protein, FGF21 analogue) HPIPDSSPLLQFGGQVRQRYLYTDDAQQTEAHLEIREDGTVGGAADQSPESLLQLKALKPGVIQILGVKTSRFLCQRPDGALYGSLHFDPEACSFRELLLEDGYNVYQSEAHGLPLHLPGQKSPHRDPAPRGPARFLPLPGLPPALPEPPGILAPQPPDVGSSDPLSLVGPSQGCSPSYAS	11 nM		
18-[[(1S)-4-[2-[2-[2-[2-[2-[2-(2-acetamidoethylamino)-2-oxo-ethoxy]ethoxy]ethylamino]-2-oxo-ethoxy]ethoxy]ethylamino]-1-carboxy-4-oxo-butyl]amino]-18-oxo-octadecanoic … (protein) HPIPDSSPLLQFGGQVRQRYLYTDDAQQTEAHLEIREDGTVGGAADQSPESLLQLKALKPGVIQILGVKTSRFLCQRPDGALYGSLHFDPEACSFRELLLEDGYNVYQSEAHGLPLHLPGQKSPHRDPAPRGPARFLPLPGLPPALPEPPGILAPQPPDVGSSDPLSLVGPSQCRSPSYAS	1 nM	1 nM	
S{Beta-173}-[2-[2-[[2-[2-[2-[[2-[2-[2-[[(4S)-4-carboxy-4-(15-carboxypentadecanoyl-amino)butanoyl]amino]ethoxy]ethoxy]acetyl]amino]ethoxy]ethoxy]acetyl]amino]-ethylamino]-2-oxoethyl]-Ala[Gln121,Leu168, … (protein) HPIPDSSPLLQFGGQVRQRYLYTDDAQQTEAHLEIREDGTVGGAADQSPESLLQLKALKPGVIQILGVKTSRFLCQRPDGALYGSLHFDPEACSFRELLLEDGYNVYQSEAHGLPLHLPGQKSPHRDPAPRGPARFLPLPGLPPALPEPPGILAPQPPDVGSSDPLSLVGPSCGRSPSYAS	3 nM	4 nM	
S{Beta-174}-[2-[2-[[2-[2-[2-[[2-[2-[2-[[(4S)-4-carboxy-4-(13-carboxytridecanoyl-amino)butanoyl]amino]ethoxy]ethoxy]acetyl]amino]ethoxy]ethoxy]acetyl]amino]-ethylamino]-2-oxoethyl]-Ala[Gln121,Leu168,Cy … (protein) HPIPDSSPLLQFGGQVRQRYLYTDDAQQTEAHLEIREDGTVGGAADQSPESLLQLKALKPGVIQILGVKTSRFLCQRPDGALYGSLHFDPEACSFRELLLEDGYNVYQSEAHGLPLHLPGQKSPHRDPAPRGPARFLPLPGLPPALPEPPGILAPQPPDVGSSDPLSLVGPSQCRSPSYAS	4 nM	4 nM	
18-[[(1S)-4-[2-[2-[2-[2-[2-[2-(2-acetamidoethylamino)-2-oxo-ethoxy]ethoxy]ethylamino]-2-oxo-ethoxy]ethoxy]ethylamino]-1-carboxy-4-oxo-butyl]amino]-18-oxo-octadecanoic … (protein) HPIPDSSPLLQFGGQVRQRYLYTDDAQQTEAHLEIREDGTVGGAADQSPESLLQLKALKPGVIQILGVKTSRFLCQRPDGALYGSLHFDPEACSFRELLLEDGYNVYQSEAHGLPLHLPGQKSPHRDPAPRGPARFLPLPGLPPALPEPPGILAPQPPDVGSSDPLSLVCPSQGRSPSYAS	1 nM	20 nM	
